From patent US20230272064A1

Tests used:
[1] = biological target: recombinant human TIGIT extracellular membrane protein with a C-terminal histidine tag (human) (UniProt Q495A1); experiment: competitive ELISA, TIGIT-His coated, competitor fixed biotin-CD155-Fc (signal), mAb at 0.312 µg/mL
[2] = biological target: recombinant human TIGIT extracellular membrane protein with a C-terminal histidine tag (human) (UniProt Q495A1); experiment: competitive ELISA, TIGIT-His coated, competitor fixed biotin-CD155-Fc (signal), mAb at 0.005 µg/mL
[3] = biological target: recombinant human TIGIT extracellular membrane protein with a C-terminal histidine tag (human) (UniProt Q495A1); experiment: competitive ELISA, TIGIT-His coated, competitor fixed biotin-CD155-Fc (signal), mAb at 5 µg/mL
[4] = biological target: recombinant human TIGIT extracellular membrane protein with a C-terminal histidine tag (human) (UniProt Q495A1); experiment: competitive ELISA, TIGIT-His coated, competitor fixed biotin-CD155-Fc (signal), mAb at 0.010 µg/mL
[5] = biological target: recombinant human TIGIT extracellular membrane protein with a C-terminal histidine tag (human) (UniProt Q495A1); experiment: competitive ELISA, TIGIT-His coated, competitor fixed biotin-CD155-Fc (signal), mAb at 10 µg/mL
[6] = biological target: recombinant human TIGIT extracellular membrane protein with a C-terminal histidine tag (human) (UniProt Q495A1); experiment: competitive ELISA, TIGIT-His coated, competitor fixed biotin-CD155-Fc (signal), mAb at 2.5 µg/mL
[7] = biological target: recombinant human TIGIT extracellular membrane protein with a C-terminal histidine tag (human) (UniProt Q495A1); experiment: competitive ELISA, TIGIT-His coated, competitor fixed biotin-CD155-Fc (signal), mAb at 0.019 µg/mL
[8] = biological target: recombinant human TIGIT extracellular membrane protein with a C-terminal histidine tag (human) (UniProt Q495A1); experiment: competitive ELISA, TIGIT-His coated, competitor fixed biotin-CD155-Fc (signal), mAb at 0.039 µg/mL
[9] = biological target: recombinant human TIGIT extracellular membrane protein with a C-terminal histidine tag (human) (UniProt Q495A1); experiment: competitive ELISA, TIGIT-His coated, competitor fixed biotin-CD155-Fc (signal), mAb at 0.078 µg/mL
[10] = biological target: recombinant human TIGIT extracellular membrane protein with a C-terminal histidine tag (human) (UniProt Q495A1); experiment: competitive ELISA, TIGIT-His coated, competitor fixed biotin-CD155-Fc (signal), mAb at 1.25 µg/mL
[11] = biological target: recombinant human TIGIT extracellular membrane protein with a C-terminal histidine tag (human) (UniProt Q495A1); experiment: competitive ELISA, TIGIT-His coated, competitor fixed biotin-CD155-Fc (signal), mAb at 0.625 µg/mL
[12] = biological target: recombinant human TIGIT extracellular membrane protein with a C-terminal histidine tag (human) (UniProt Q495A1); experiment: competitive ELISA, TIGIT-His coated, competitor fixed biotin-CD155-Fc (signal), mAb at 0.156 µg/mL

Sequence of recombinant human TIGIT extracellular membrane protein with a C-terminal histidine tag (human) (Q495A1 22-141): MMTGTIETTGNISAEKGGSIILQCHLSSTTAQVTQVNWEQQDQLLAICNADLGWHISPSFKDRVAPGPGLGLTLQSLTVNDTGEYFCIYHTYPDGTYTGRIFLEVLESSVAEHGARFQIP

anti-VEGF monoclonal antibody hPV19
OD at 492 nm [1]: 1.03 OD | OD at 492 nm [2]: 1.11 OD | OD at 492 nm [3]: 1.1 OD | OD at 492 nm [4]: 1.1 OD | OD at 492 nm [5]: 1.11 OD | OD at 492 nm [6]: 1.07 OD | OD at 492 nm [7]: 1.08 OD | OD at 492 nm [8]: 1.05 OD | OD at 492 nm [9]: 1.05 OD | OD at 492 nm [10]: 1.08 OD | OD at 492 nm [11]: 1.06 OD | OD at 492 nm [12]: 1.05 OD
